Publication PMC5757785

Molecular target: FlAsH-tagged Lys6-linked diubiquitin (UniProt P0CG47)
Experiment: fluorescence polarisation

USP30^c13i (inactive USP30 construct 13, C77A) (from UniProt Q70CQ3 1-517) (enzyme)
Kd: 4 µM
